# Laboratory results published in publication PMC11087588, “Genetic and functional diversity of β-N-acetylgalactosamine-targeting glycosidases expanded by deep-sea metagenome analysis” (Nature Communications, 2024).
# Columns and labels:
# NgaLy [1] = molecular target: T1, NgaLy (Lacticaseibacillus yichunensis, UniProt A0ABW4CMK8, W431A); assay: relative activity versus wild type; format: biochemical; settings: substrate taken from the standard assay (Assay I)
# T1 construct: gene ACFQ47_05640; synthetic gene, pET-47b(+), E. coli BL21 Star (DE3); His tag cut with HRV3C; monomer; DE motif D327/E328
# T1 sequence (A0ABW4CMK8 entry or part of it W431A): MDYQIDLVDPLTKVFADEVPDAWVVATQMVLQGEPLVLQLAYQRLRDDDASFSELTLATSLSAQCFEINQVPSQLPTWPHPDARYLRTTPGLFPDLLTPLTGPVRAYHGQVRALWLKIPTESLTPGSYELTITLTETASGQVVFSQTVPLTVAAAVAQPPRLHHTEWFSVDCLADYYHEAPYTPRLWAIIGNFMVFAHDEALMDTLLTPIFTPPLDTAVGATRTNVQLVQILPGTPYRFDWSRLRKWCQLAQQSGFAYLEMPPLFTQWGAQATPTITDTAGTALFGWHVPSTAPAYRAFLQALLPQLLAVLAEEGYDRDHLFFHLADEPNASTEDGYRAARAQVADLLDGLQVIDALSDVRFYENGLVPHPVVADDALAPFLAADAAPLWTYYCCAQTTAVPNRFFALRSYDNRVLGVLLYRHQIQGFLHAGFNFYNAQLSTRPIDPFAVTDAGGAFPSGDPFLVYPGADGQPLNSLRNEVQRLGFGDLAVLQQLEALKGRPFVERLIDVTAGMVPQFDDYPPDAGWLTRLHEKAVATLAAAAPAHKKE
# NgaLy [2] = molecular target: T2, NgaLy (Lacticaseibacillus yichunensis, UniProt A0ABW4CMK8, Y392A); assay: relative activity versus wild type; format: biochemical; settings: substrate taken from the standard assay (Assay I)
# T2 construct: gene ACFQ47_05640; synthetic gene, pET-47b(+), E. coli BL21 Star (DE3); His tag cut with HRV3C; monomer; DE motif D327/E328
# T2 sequence (A0ABW4CMK8 entry or part of it Y392A): as the sequence (A0ABW4CMK8 entry or part of it W431A) above, with Y392A, A431W counted along it
# purified protein [3] = substrate: CC(=O)N[C@H]1[C@H](Oc2ccc([N+](=O)[O-])cc2)O[C@H](CO)[C@H](O)[C@@H]1O; assay: purified protein; format: biochemical, Bathyarchaeia (SeqCode); settings: citrate pH 6.5, 70 °C (optimum), apparent, not saturated up to 2 mM
# purified protein [4] = substrate: CC(=O)N[C@H]1[C@H](Oc2ccc([N+](=O)[O-])cc2)O[C@H](CO)[C@H](O)[C@@H]1O; assay: purified protein; format: biochemical, Arabidopsis thaliana; settings: citrate pH 5.0, 40 °C (optimum), apparent, not saturated up to 2 mM
# purified protein [5] = substrate: CC(=O)N[C@H]1[C@H](Oc2ccc([N+](=O)[O-])cc2)O[C@H](CO)[C@H](O)[C@@H]1O[C@@H]1O[C@H](CO)[C@H](O)[C@H](O)[C@H]1O; assay: purified protein; format: biochemical, Cohnella abietis; settings: citrate pH 5.0, 25 °C (optimum), apparent, not saturated up to 2 mM
# purified protein [6] = substrate: CC(=O)N[C@H]1[C@H](Oc2ccc([N+](=O)[O-])cc2)O[C@H](CO)[C@H](O)[C@@H]1O; assay: purified protein; format: biochemical, Lacticaseibacillus yichunensis; settings: HEPES pH 7.0, 40 °C (optimum), apparent, not saturated up to 2 mM
# purified protein [7] = substrate: CC(=O)N[C@H]1[C@H](Oc2ccc([N+](=O)[O-])cc2)O[C@H](CO)[C@H](O)[C@@H]1O; assay: purified protein; format: biochemical, Paenibacillus sp. TS12; settings: citrate pH 5.5, 40 °C (optimum), apparent, not saturated up to 2 mM
# purified protein [8] = substrate: CC(=O)N[C@H]1[C@H](Oc2ccc([N+](=O)[O-])cc2)O[C@H](CO)[C@H](O)[C@@H]1O; assay: purified protein; format: biochemical, Brachybacterium faecium; settings: citrate pH 6.5, 35 °C (optimum), apparent, not saturated up to 2 mM
molecule,measurement,setting,value
CC(=O)N[C@H]1[C@H](Oc2ccc([N+](=O)[O-])cc2)O[C@H](CO)[C@H](O)[C@@H]1O [GalNAc-β-pNP],relative activity versus wild type,NgaLy [1],The Y392A and W431A mutants were purified as soluble enzymes
same,relative activity versus wild type,NgaLy [2],The Y392A and W431A mutants were purified as soluble enzymes
"NgaBa (Bathyarchaeia (SeqCode)) (protein, synthetic gene, pET-47b(+), E. coli BL21 Star (DE3); His tag cut with HRV3C; monomer) MSRFDVWVQDSLTKVFRDSPKPEDAIKDVVLDAVRNEYEAAQIVVHPLEDVERLEVRVTSLRHESDEYAITRVYPRFVGYVPVKRNTPDTPPEELVRKAPGMFPDPLLEEETVRVKKGENQPVWLTVYVPKDAPPGTYHGEVLIRADGDETRVKTCLRVHDVILPDERNLKLSNFLSPHNISKFHGVELWSEDFWRLLKAYARNMAEHRQSSIITPILELTRIYKGDDRLEFDFRLLDRWINLFKEEGVIGTVEGGYLAGRPPRTVEGWWTVSEFLSRRYRVFNKDGSLAYVQEPVKVSSPVFEEFISQFMPALQAHLDELGLLDSYVQHLADEPIDANAESYKHIAGLVRKYAPKIRIIEASTCKRLVDYIDVLVPLLDDYDKNMSFYEERKRRGNEVWFYTCLAPTGRYPNRLIDYSLVKVRILHWINFKYGLVGYLHWGYNYWTEKPFEDVENEPSHPFPLPPGDPFIVYPGKSGPLDSIRFEALRDGVEDYELFKLLAERKGLDEAVGLCSLAVKTITDYVRSSGELLSIRLRLINELESLG",Km,purified protein [3],3900 ± 1000 µM
same,kcat,purified protein [3],510 ± 50 s⁻¹
"NgaAt (Arabidopsis thaliana) (protein, synthetic gene, pET-47b(+), E. coli BL21 Star (DE3); His tag cut with HRV3C; monomer; extra N-terminal domain of ~80 residues disordered in crystal) MDNNVSQEMTVPVEGVAGGGTAYGFNDAEPLKQSTDPSEVPTADLVNVWCMPNTVNVGSQETPRALEPINLLAARNERESFQIAMRPKVSWAASSPSGIVQVQCSDLCSSAGDRLVVGQSLKLRRVVPVLGVPDALVPLDLPVSQLSLFPGETSVIWVSIDVPTGQPPGQYEGEIIISAMKTDGGGSSHLAKHEKDQLCVELNTCLDIMEPIEGKPMDEVVERIKCASSSLRRILFSPSFSEFISTNGSTDMMEEDVVSNLSLRIKLRLTVWEFIIPVTPSLPAVIGVSDTVIEDRFAVEHGSEDWYKKLDLHFKWLLQYRISPYFCKWGESMRVLTYTSPWPADHPKSDEYLSDSRLAAYAVPYRQVIAGDDSRESYLRKEVEILRSKPHWNKAYFYLWDEPLNMEHFDNVRKMASEIYAYAPDSRVLTTYYCGPGDAPLAPTPFESFVKVPNLLRPYTQIYCTSEWVLGNREDLVKDILDELQTENGEEWWTYICLGPSDPHPNWHLGMRGTQQRAVMWRVWKEGGTGFLYWGANCYEKATVPSAEVKFRRGLPPGDGVLYYPGEVFSSSSEPVASLRLERLLSGLQDYEYLKLYESKYGREEAMGLLEKTGVYTGPERYTLEHRPIDVLRGEVYNTCRPS",Km,purified protein [4],12000 ± 5000 µM
same,kcat,purified protein [4],8 ± 3 s⁻¹
"NgaCa (Cohnella abietis) (protein, synthetic gene, pET-47b(+), E. coli BL21 Star (DE3); His tag cut with HRV3C; monomer) MANTQKTLSLSVWTASSQERVRQDDPAGESLNIELFAARGEYESFQVALKAPEGEHRNVHFVVSDLKGTGDSFISKSNLTLYREHYVYISESSPQRGTVLPEGPGWYPDALIPFIDPATNEPPSGGELIAVPFALENNSNQVIWVDIQVPRDAEAGHYSGSYIVSSEHGEVTGQISLTVWNFELPLKPSLKSTFLIWSSRKKSTVEELLKHKLMCQQWNLSEEEKGAAPTSEGEWIEKYGVNCSGLGFWSKADTFNGVMPPPPTVEEIQAAASAHPSNLFLYNYTADEIGHYTSLYEPIKAWARNLHEAGVANLITMAPVPELYDDGSGSGRSAVDIWVILPLQYDKDRIQEVLAKGDEVWSYNCCVQDDYSPKWQIDFNPIEYRIQPGFINQSLGMTGILYWRVDFWTEDPWHDVLTLRADGMEFNGEGMLVYPGEQVGIDGVVPSIRLKAIRKGIEDYEYIEILKNLGHEQWALEISQSVGPDWHNWTKDHHKLEWARKQLGERINDLMTK",Km,purified protein [5],11000 ± 3000 µM
same,kcat,purified protein [5],1.2 ± 0.3 s⁻¹
"NgaLy (Lacticaseibacillus yichunensis) (protein, synthetic gene, pET-47b(+), E. coli BL21 Star (DE3); His tag cut with HRV3C; monomer; DE motif D327/E328) MDYQIDLVDPLTKVFADEVPDAWVVATQMVLQGEPLVLQLAYQRLRDDDASFSELTLATSLSAQCFEINQVPSQLPTWPHPDARYLRTTPGLFPDLLTPLTGPVRAYHGQVRALWLKIPTESLTPGSYELTITLTETASGQVVFSQTVPLTVAAAVAQPPRLHHTEWFSVDCLADYYHEAPYTPRLWAIIGNFMVFAHDEALMDTLLTPIFTPPLDTAVGATRTNVQLVQILPGTPYRFDWSRLRKWCQLAQQSGFAYLEMPPLFTQWGAQATPTITDTAGTALFGWHVPSTAPAYRAFLQALLPQLLAVLAEEGYDRDHLFFHLADEPNASTEDGYRAARAQVADLLDGLQVIDALSDVRFYENGLVPHPVVADDALAPFLAADAAPLWTYYCCAQTTAVPNRFFALRSYDNRVLGVLLYRHQIQGFLHWGFNFYNAQLSTRPIDPFAVTDAGGAFPSGDPFLVYPGADGQPLNSLRNEVQRLGFGDLAVLQQLEALKGRPFVERLIDVTAGMVPQFDDYPPDAGWLTRLHEKAVATLAAAAPAHKKE",Km,purified protein [6],1000 ± 50 µM
same,kcat,purified protein [6],480 ± 10 s⁻¹
"NgaP2 (Paenibacillus sp. TS12) (protein, cloned from genomic DNA, pET-47b(+), E. coli BL21 Star (DE3); His tag cut with HRV3C; monomer; not the GH123 NgaP of the same strain) LIRWSQVDEEGDTIMLEELPDFETRCLSSLSKVFADAELHDLPVNTGSAMWKEVFSFQVAYRSPQLIKSLKISAESELEPYLAIRAVGLSPSELPVFPNPDEGYIRTAPGLYPDPLYPLADGVHAVPNQWRSVWVTVSLPSMSEFIPAADIGAESVSFPIDLCFEDGKGNHLGAEKFALEIIFQELPEQTLLHTEWFHSDCIATQYKVEVFSEAHWKLIESYVHNAVNHGVNMLLTPLFTPPLDTYVGGERPTVQLIDVEITGVNEYRFKFDRLERWVEMCQRLGIQFIEFSHLFTQWGAKYAPKIIAKKDGEEKRIFGWDTEASGESYSLFLDQFLPQLVHFIRNHHLDDKVFFHVSDEPGMKHAESYRQASDILNKHLAGFSILDALSDYDFYEKGLVQIPVPSNDQIEPFIEHGVEPLWTYYCCGQDHHVSNRFFSLSSPRNRVLGAQLYKFGVQGFLHWGFNFWYSQYSKKVIDPFKVTDADCAFPSGDPFVVYPGADGPLDSIRWEVFREGLQDLRALKLLEALAGREKTLALLEQNLREELTFKSFPDDIEWLLSTREKINRAIKDAYRADR",Km,purified protein [7],360 ± 30 µM
same,kcat,purified protein [7],28 ± 0.6 s⁻¹
"NgaBf (Brachybacterium faecium DSM 4810) (protein, synthetic gene, pET-47b(+), E. coli BL21 Star (DE3); His tag cut with HRV3C; monomer) MQTVLTDSLEKVLGESAPRPAAPIGGAHASGFLGEVLSVQVALRAEEGEAPDPRSAEHAALRVRLGGEIADSARVHAVRRVPVSSPAPAEADEHYLATAPGEYPDLLEPLGGEEVRVGRGLWEALWIDVIDAPPGEHTLTLALTDTTGEQVLAEHAVQLRVHPHQLPPLSITNTHWFHADSLSTYYDVEVLSPQHWELIEAFLASAREMDVTSVLTPTWTPPLDTAEGHTRPFVQLIGIREEEGEYSFDLSALDRWLEICGRLGFTGIEIAHLFTQWGARSTPAIQVETGSGLEHRFGWHVPATSPEYRRLLEALIPVLRAHLEEHWDGQVLWHISDEPHEDQLDSYRAAKEQVADLLEGAQVVDALSSLAFAEQGVVDTPIVATSHVGPFLEAGRRPWVYYCVSQNRDVANRFIAQPSVRNRVLGRQLFAFDAPGFLHWGYNFWWAQFSLRPIDPFEETCAGGPFFGGDSFAVYPGPEGTPWLSLRHRVFAQAMADHRALTWLAELTDRPSAVALVDEGGTLTYSSFSYDVHAHLEARHAVDERIRAALAA",Km,purified protein [8],1000 ± 70 µM
same,kcat,purified protein [8],170 ± 5 s⁻¹
